B1: full-length barley (Hordeum vulgare) SGT1 protein (natural protein, Hordeum vulgare (barley), UniProt Q8W516 1-373, looked up)
chain: MAAAAASDLESKAKEAFVDDDFELAAELYTQAIEAGPATAELYADRAQAHIKLGSYTEAVADANKAIELDPSMHKAYLRKGSACIKLEEYQTAKAALEVGSSYASGDSRFTRLMKECDDRIAEEASQAPVKNAAAAVAPATSSGATTVVTEAEDQDGENMENAQPTVEVPSKPKYRHDYYNTPTEVVLTIFAKGVPADSVVVDFGEQMLSVSIELPGEEPYHFQPRLFSKIVPDKCKYTVLSTKVEIRLAKAEPVTWTSLDYTGKPKAPQKINVPAESAQRPSYPSSKSKKDWDKLEAEVKKQEKDEKLDGDAALNKFFREIYSDADEDMRRAMMKSFVESNGTVLSTNWKDVGKKTVEGSPPDGMELKKWEY
notes: SGT1 (suppressor of the G2 allele of skp1), Hordeum vulgare, full length cDNA; 373 amino acids in total; Cloned in pET151-D TOPO; His-TEV site cleaved with His-TEV protease (Ser219Val); also called barley SGT1; HvSgt1; source: E. coli BL21 DE3 Codon Plus, purified (HisTrap Ni-NTA, Superdex 200, TEV cleavage, HisTrap, MonoQ)
B2: TPR domain from Hordeum vulgare SGT1 (6-124) (domain or fragment, Hordeum vulgare (barley), UniProt Q8W516 6-124, looked up)
chain: ASDLESKAKEAFVDDDFELAAELYTQAIEAGPATAELYADRAQAHIKLGSYTEAVADANKAIELDPSMHKAYLRKGSACIKLEEYQTAKAALEVGSSYASGDSRFTRLMKECDDRIAEE
notes: SGT1, Hordeum vulgare, tetratricopeptide repeats (TPR) domain, residues 6-124; Cloned in pETM11 (NcoI/EcoRI) from pET151-HvSgt1; his-tag cleaved with TEV protease; source: E. coli BL21(DE3) Codon Plus, purified (HisTrap, TEV cleavage, HisTrap, Superdex 200)

What was measured:
[1] = target: the molecule itself; assay: SAXS; full-length SGT1 in solution, 3.46, 3.41 and 2.71 mg/mL in 50 mM Tris/HCl pH 7.5, 5 mM DTT with 0, 0.5 or 1 M NaCl, 10°C; SVD and MCR-ALS analysis; dimer to monomers
[2] = target: the molecule itself; assay: SAXS; TPR domain in solution, 2 mg/ml in 50 mM Tris HCl pH 7.5, 5 mM DTT with 0, 100, 200, 400, 600 or 800 mM KCl, 15°C; SVD and MCR-ALS analysis; dimer to monomers

Row | Protein | stoichiometry N [1] | stoichiometry N [2]
1 | B1 | 2 | –
2 | B2 | – | 2
